Results on 14 molecules are retold here after US20120213804A1 (Pfizer, published 2012).

In assay [1] the target is Fc-CD22 (UniProt P20273). Briefly: BIACORE, Fc-CD22 on CM5 chip; competitor G5/44 pre-bound.
Assay [2] addresses Fc-CD22 (UniProt P20273). Briefly: BIACORE, Fc-CD22 on CM5 chip, no G5/44.
For assay [3], the target named is T1, CD33 on CD22- CD33+ HL-60 leukemia cells (human, UniProt P20138 18-364).
T1 construct: whole, on cells
Briefly: flow cytometry. The source says: Purified human polyclonal IgG1 and IgG4 were also used as negative controls.

In assay [4] the target is T2, CD22mFc (UniProt P20273 20-687, limits assumed).
T2 construct: also called CD22-mFc constructs; not shown: mouse Fc (captured by anti-mouse Fc)
Briefly: SPR (BIACORE 2000), CD22mFc on CM5 chip, global 1:1 Langmuir fit with mass transfer. How it is done: (§1) Biosensor analyses were carried out using a BIACORE™ 2000 (BIAcore AB, Uppsala, Sweden). CD22mFc was covalently immobilized on the N-hydroxysuccinimide-activated carboxymethyl dextran-coated biosensor chip (CM5) using a standard amine-coupling chemistry at a protein density of approximately 2000 resonance units. […] After the binding phase, dissociation of the bound antibody was monitored by washing the chip with the HBS buffer over a 15 minute period. The antigenic surface was regenerated by washing the Biosensor chip with 15 μl of the regeneration buffer (10 mM NaOH and 200 mM NaCl) for 30 seconds, followed by a stabilization time of 2 minutes before the next cycle. Kinetic constants were calculated by nonlinear least square regression analysis using a 1:1 Langmuir binding curve fitting model and BIAevaluation program (version 3.0, BIAcore).

Assay [5] deals with T3, human CD22 on the surface of B cells (Ramos, RL, Daudi, Raji lymphoma cells; B cell lymphoma tissue) (human, UniProt P20273 20-847). Briefly: cell-based or functional assay.
Assay [6] deals with T2, CD22mFc. Briefly: SPR (BIACORE 2000), CD22mFc immobilized on CM5 chip. The procedure: as §1
The target of assay [7] is T3, human CD22 on the surface of B cells …. Briefly: cell-based or functional assay. This is another data set of the same source.
Assay [8] has the same target. Briefly: cell-based or functional assay. This is another data set of the same source.
Assay [9] concerns the target T2, CD22mFc. Briefly: Biacore 2000; CD22mFc captured via immobilized anti-mouse Fc, antibody in the soluble phase; column head '~KD nM'. How it is done: (§2) All binding measurements were performed in the BIACORE™ 2000 instrument (Pharmacia Biosensor AB, Uppsala, Sweden). The assay was performed by capture of CD22mFc via the immobilized anti-mouse Fc. The antibody was in the soluble phase. Samples, standard, and controls (50 μl) were injected over immobilized anti-mouse Fc followed by antibody in the soluble phase. After each cycle, the surface was regenerated with 50 μl of 40 mM HCl at 30 μl/min. The kinetic analysis was performed using the BIAevaluation 3.1 software (Pharmacia).

Assay [10] has as its target T2, CD22mFc. Briefly: BIACORE 2000, CD22mFc captured via anti-mouse Fc. How it is done: as §2

Positions count from the first letter of the chain named. Names may count otherwise. Like-named read-outs stand apart in the source and are kept apart here.

T1 sequence (P20138 18-364): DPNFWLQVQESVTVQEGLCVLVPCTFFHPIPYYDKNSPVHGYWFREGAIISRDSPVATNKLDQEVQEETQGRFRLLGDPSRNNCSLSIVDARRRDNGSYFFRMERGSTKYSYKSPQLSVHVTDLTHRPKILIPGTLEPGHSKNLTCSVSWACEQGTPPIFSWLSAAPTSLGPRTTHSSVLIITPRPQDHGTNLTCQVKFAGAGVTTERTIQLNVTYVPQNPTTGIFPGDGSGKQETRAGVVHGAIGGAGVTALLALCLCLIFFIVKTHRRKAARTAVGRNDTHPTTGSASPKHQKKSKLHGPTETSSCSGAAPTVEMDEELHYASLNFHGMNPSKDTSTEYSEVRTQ

Regarding anti-CD19 antibody BU12 (Celltech), in assay [1], the Inhibition by G544 (%) came out at 0%; the Response 2 with G544 (combined response, RU) turned out to be 603 RU; the Response 3 (Response 2-1) (RU) was -83.5 RU; the Response 3 adjusted for OFF rate of G544 (RU) came to 0 RU.
In assay [2], “anti-CD22 antibody SHCL-1, Leu 14 (Becton Dickinson)” yielded a Binding of 2nd mAb without G544 adjusted for background (RU) of 29.3 RU. In assay [1], the Inhibition by G544 (%) came out at 69%; the Response 2 with G544 (combined response, RU) amounted to 580 RU; the Response 3 (Response 2-1) (RU) is -74.5 RU; the Response 3 adjusted for OFF rate of G544 (RU) worked out at 9 RU.
As to anti-CD22 antibody To 15 (Dako Corp), in assay [2], the Binding of 2nd mAb without G544 adjusted for background (RU) turned out to be 615 RU. For the same molecule, in assay [1], the Inhibition by G544 (%) turned out to be 7%; the Response 2 with G544 (combined response, RU) came out at 1160 RU; the Response 3 (Response 2-1) (RU) worked out at 487 RU; the Response 3 adjusted for OFF rate of G544 (RU) was determined as 570 RU.
As to “anti-CD22 antibody BLCAM, HD239 (Santa Cruz Biotech)”, the Binding of 2nd mAb without G544 adjusted for background (RU) in [2] was 19.3 RU. Further, in assay [1], the Inhibition by G544 (%) worked out at 91%; the Response 2 with G544 (combined response, RU) turned out to be 629 RU; the Response 3 (Response 2-1) (RU) was -81.8 RU; the Response 3 adjusted for OFF rate of G544 (RU) was found to be 1.7 RU.
Molecule anti-CD22 antibody 4 KB128 (Dako Corp) registered a Binding of 2nd mAb without G544 adjusted for background (RU) in assay [2] of 739 RU. In addition, in assay [1], the Inhibition by G544 (%) is 0%; the Response 2 with G544 (combined response, RU) is 1340 RU; the Response 3 (Response 2-1) (RU) worked out at 652 RU; the Response 3 adjusted for OFF rate of G544 (RU) turned out to be 736 RU.

B1: CMC-544 (G5/44-NAc-gamma-calicheamicin DMH AcBut conjugate), preparation not specified (antibody, human IgG4 S228P, kappa, V domains shown)
VH: EVQLVQSGAEVKKPGASVKVSCKASGYRFTNYWIHWVRQAPGQGLEWIGGINPGNNYATYRRKFQGRVTMTADTSTSTVYMELSSLRSEDTAVYYCTREGYGNYGAWFAYWGQGTLVTVSS
VL: DVQVTQSPSSLSASVGDRVTITCRSSQSLANSYGNTFLSWYLHKPGKAPQLLIYGISNRFSGVPDRFSGSGSGTDFTLTISSLQPEDFATYYCLQGTHQPYTFGQGTKVEIKR
modifications: NAc-gamma calicheamicin DMH AcBut conjugated to the antibody; chain and residues not stated
notes: also called NAc-Gamma Calicheamicin DMH AcBut-G5/44 immunoconjugate
Regarding B1, in assay [3], the binding result is “no binding”. Moreover, the dissociation constant (Kd) in assay [4] was determined as 200 pM. Also, in assay [5], the “killing of CD22+ target cells relative to the unconjugated drug” value is no less than 10 times.

B2: CMC-544 (87 µg/mg) (CMC-544 procedure) (antibody, human IgG4 S228P, kappa, V domains shown)
VH: B1 VH
VL: B1 VL
modifications: NAc-gamma calicheamicin DMH AcBut conjugated, loading 87 µg/mg; chain and residues not stated
B2: in assay [6], the Ka worked out at 6.6e+09 M⁻¹; the affinity, expressed as Kd, was 150 pM; the koff was determined as 6.9e-05 s⁻¹; the association rate constant (kon) worked out at 460000 M⁻¹ s⁻¹.

B3: CMC-544, CMC-544 process, loading 65 µg/mg (antibody, human IgG4 S228P, kappa, V domains shown)
VH: B1 VH
VL: B1 VL
modifications: NAc-gamma calicheamicin DMH AcBut conjugated, loading 65 µg/mg; chain and residues not stated
As to B3, in [7], the “growth inhibition IC50, Daudi #1” value was 21 pM of calicheamicin; the “growth inhibition IC50, RL #1” value was 6 pM of calicheamicin; the “growth inhibition IC50, RL #2” value was 12 pM of calicheamicin; the “growth inhibition IC50, Raji #1” value is 500 pM of calicheamicin. Also, in assay [7], the “growth inhibition IC50, Raji #2” value was 560 pM of calicheamicin; the “growth inhibition IC50, Ramos #1” value is 200 pM of calicheamicin; the “growth inhibition IC50, Ramos #2” value was 260 pM of calicheamicin. Besides, in assay [8], the “growth inhibition IC50, Daudi #1” value is 0.32 µg/mL of antibody; the “growth inhibition IC50, RL #1” value was 0.09 µg/mL of antibody; the “growth inhibition IC50, RL #2” value was 0.18 µg/mL of antibody; the “growth inhibition IC50, Raji #1” value is 7.69 µg/mL of antibody. Moreover, in [8], the “growth inhibition IC50, Raji #2” value is 8.62 µg/mL of antibody; the “growth inhibition IC50, Ramos #1” value was 3.08 µg/mL of antibody; the “growth inhibition IC50, Ramos #2” value is 4 µg/mL of antibody.

B4: CMC-544, CMA-676 process, loading 35 µg/mg (antibody, human IgG4 S228P, kappa, V domains shown)
VH: B1 VH
VL: B1 VL
modifications: NAc-gamma calicheamicin DMH AcBut conjugated, loading 35 µg/mg; chain and residues not stated
Turning to B4, in assay [7], the “growth inhibition IC50, Daudi #1” value was 80 pM of calicheamicin; the “growth inhibition IC50, RL #1” value was 30 pM of calicheamicin; the “growth inhibition IC50, RL #2” value is 40 pM of calicheamicin; the “growth inhibition IC50, Raji #2” value is 520 pM of calicheamicin. In addition, the “growth inhibition IC50, Ramos #1” value in assay [7] is 130 pM of calicheamicin. For the same molecule, in assay [8], the “growth inhibition IC50, Daudi #1” value was 2.29 µg/mL of antibody; the “growth inhibition IC50, RL #1” value was 0.86 µg/mL of antibody; the “growth inhibition IC50, RL #2” value is 1.14 µg/mL of antibody; the “growth inhibition IC50, Raji #2” value was 14.9 µg/mL of antibody. Also, in assay [8], the “growth inhibition IC50, Ramos #1” value is 3.71 µg/mL of antibody.

B5: CMC-544 (21 µg/mg) (CMA-676 procedure) (antibody, human IgG4 S228P, kappa, V domains shown)
VH: B1 VH
VL: B1 VL
modifications: NAc-gamma calicheamicin DMH AcBut conjugated, loading 21 µg/mg; chain and residues not stated
Regarding B5, in [6], the Ka was found to be 8.1e+09 M⁻¹, the dissociation constant Kd turned out to be 120 pM, the dissociation rate constant (koff) came to 6.1e-05 s⁻¹ and the kon was 490000 M⁻¹ s⁻¹.

B6: humanized anti-CD22 antibody G5/44 (antibody, human IgG4 S228P, kappa, V domains shown)
VH: B1 VH
VL: B1 VL
notes: also called Humanized G5/44; gL1gH7
Turning to B6, in assay [3], the binding result is on record as “no binding”. In addition, in [6], the Ka worked out at 7.9e+09 M⁻¹; the affinity, expressed as Kd, was 130 pM; the dissociation rate constant (koff) amounted to 2.8e-05 s⁻¹; the association rate constant (kon) stood at 220000 M⁻¹ s⁻¹. The affinity in [4], expressed as Kd, was 235 pM.

B7: chimeric 5/44 variant K60R (antibody, V domains shown)
VH: EVQLQQSGTVLARPGASVKMSCKASGYRFTNYWIHWVKQRPGQGLEWIGGINPGNNYTTYRRNLKGKATLTAVTSASTAYMDLSSLTSEDSAVYYCTREGYGNYGAWFAYWGQGTLVTVSS
VL: DVVVTQTPLSLPVSFGDQVSISCRSSQSLANSYGNTFLSWYLHKPGQSPQLLIYGISNRFSGVPDRFTGSGSGTDFTLKISTIKPEDLGMYYCLQGTHQPYTFGGGTKLEIKR
notes: Human kappa / human gamma-4 constant regions; The position is as printed
Molecule B7 returned a Kd in assay [9] of roughly 200 pM.

B8: chimeric 5/44 variant T57A (antibody, V domains shown)
VH: B7 VH with T58A, R61K
VL: B7 VL
notes: Human kappa / human gamma-4 constant regions; The position is as printed (CDR-H2, Kabat definition); also called construct T57A
For the molecule B8, the “affinity improvement compared to the chimeric 5/44 (fold)” value in assay [10] was roughly 5 fold. In [9], this molecule had a Kd of roughly 70 pM.

B9: chimeric 5/44 variant N55Q (antibody, V domains shown)
VH: B7 VH with N56Q, R61K
VL: B7 VL
notes: as for B7
Consider B9, for which the Kd in [9] is roughly 300 pM.
